Results as given in patent US20160347808A1 (IMMATICS BIOTECHNOLOGIES, published 2016).
Square brackets hold non-standard residues; d marks the D form. Ends that are not written are not given here. pS = N[C@@H](COP(=O)(O)O)C(=O)O

The binders below were run against T1, HLA-A*02:01 (peptide-receptive MHC class I monomer from UV-ligand exchange) (human) (assay: UV-exchange ELISA (anti-b2m); exchange yield grade: + >=10%, ++ >=20%, +++ >=50%, ++++ >=75%).
T1 construct: Monomers were captured on streptavidin-coated plates
Source text: Candidate peptides for T cell based therapies according to the present invention were further tested for their MHC binding capacity (affinity). The individual peptide-MHC complexes were produced by UV-ligand exchange, where a UV-sensitive peptide is cleaved upon UV-irradiation, and exchanged with the peptide of interest as analyzed. Only peptide candidates that can effectively bind and stabilize the peptide-receptive MHC molecules prevent dissociation of the MHC complexes. To determine the yield of the exchange reaction, an ELISA was performed based on the detection of the light chain (β2m) of stabilized MHC complexes. The assay was performed as generally described in Rodenko et al. (Rodenko et al., 2006).
96 well MAXISorp plates (NUNC) were coated over night with 2 ug/ml streptavidin in PBS at room temperature, washed 4× and blocked for 1 h at 37° C. in 2% BSA containing blocking buffer. Refolded HLA-A*02:01/MLA-001 monomers served as standards, covering the range of 15-500 ng/ml. Peptide-MHC monomers of the UV-exchange reaction were diluted 100 fold in blocking buffer. Samples were incubated for 1 h at 37° C., washed four times, incubated with 2 ug/ml HRP conjugated anti-β2m for 1 h at 37° C., washed again and detected with TMB solution that is stopped with […]. Absorption was measured at 450 nm. Candidate peptides that show a high exchange yield (preferably higher than 50%, most preferred higher than 75%) are generally preferred for a generation and production of antibodies or fragments thereof, and/or T cell receptors or fragments thereof, as they show sufficient avidity to the MHC molecules and prevent dissociation of the MHC complexes.

peptide exchange yield | Binder
≥ 75% | SLADRLIGV [peptide SLADRLIGV (SEQ ID NO 25)]
20 to 50% | FLDASDPAL [peptide FLDASDPAL (SEQ ID NO 48)]
20 to 50% | GLASKENFSNVSL [peptide GLASKENFSNVSL (SEQ ID NO 26)]
50 to 75% | FLSSLKGGLL [peptide FLSSLKGGLL (SEQ ID NO 18)]
50 to 75% | VLIDHRWVL [peptide VLIDHRWVL (SEQ ID NO 21)]
≥ 75% | ILLDDNMQIRL [peptide ILLDDNMQIRL (SEQ ID NO 174)]
50 to 75% | YLKDGDVML [peptide YLKDGDVML (SEQ ID NO 20)]
50 to 75% | VLYTGVVRV [peptide VLYTGVVRV (SEQ ID NO 185)]
50 to 75% | SLESKLTSV [peptide SLESKLTSV (SEQ ID NO 44)]
50 to 75% | VLDGVLMEL [peptide VLDGVLMEL (SEQ ID NO 24)]
50 to 75% | ILLEKSVSV [peptide ILLEKSVSV (SEQ ID NO 34)]
20 to 50% | QVWEIQHTV [peptide QVWEIQHTV (SEQ ID NO 51)]
50 to 75% | KLLDLTVRI [peptide KLLDLTVRI (SEQ ID NO 35)]
50 to 75% | FLVDGPRVQL [peptide FLVDGPRVQL (SEQ ID NO 188)]
≥ 75% | ALTEIQEFI [peptide ALTEIQEFI (SEQ ID NO 28)]
20 to 50% | LLADEDSSYL [peptide LLADEDSSYL (SEQ ID NO 27)]
20 to 50% | TLDAAQPRV [peptide TLDAAQPRV (SEQ ID NO 43)]
50 to 75% | RLYTKLLNEA [peptide RLYTKLLNEA (SEQ ID NO 19)]
20 to 50% | KLYERCEVV [peptide KLYERCEVV (SEQ ID NO 47)]
50 to 75% | QMLDVAIRV [peptide QMLDVAIRV (SEQ ID NO 29)]
50 to 75% | KLGDLMVLL [peptide KLGDLMVLL (SEQ ID NO 173)]
10 to 20% | GLSSAYGGL [peptide GLSSAYGGL (SEQ ID NO 30)]

peptide exchange yield | Binder
50 to 75% | SVIDHIHLISV [peptide SVIDHIHLISV (SEQ ID NO 167)]
50 to 75% | ALAELLHGA [peptide ALAELLHGA (SEQ ID NO 45)]
50 to 75% | SLLDENNVSSYL [peptide SLLDENNVSSYL (SEQ ID NO 184)]
≥ 75% | KMLDEILLQL [peptide KMLDEILLQL (SEQ ID NO 164)]
50 to 75% | RLAELTVDEFL [peptide RLAELTVDEFL (SEQ ID NO 4)]
20 to 50% | ALLPRYFFL [peptide ALLPRYFFL (SEQ ID NO 2)]
50 to 75% | YLAHFIEGL [peptide YLAHFIEGL (SEQ ID NO 169)]
50 to 75% | GLLESPSIFNFTA [peptide GLLESPSIFNFTA (SEQ ID NO 36)]
50 to 75% | GLDDRYSLV [peptide GLDDRYSLV (SEQ ID NO 46)]
50 to 75% | GLIDEVMVL (also called CYP2W1-001) [peptide GLIDEVMVL (SEQ ID NO 22)]
50 to 75% | GLFAGLGGAGA [peptide GLFAGLGGAGA (SEQ ID NO 37)]
≥ 75% | WLFDDGGLTL [peptide WLFDDGGLTL (SEQ ID NO 5)]
20 to 50% | ALSNVIHKV [peptide ALSNVIHKV (SEQ ID NO 40)]
50 to 75% | LLYGKYVSV [peptide LLYGKYVSV (SEQ ID NO 31)]
50 to 75% | TLMAEMHVV [peptide TLMAEMHVV (SEQ ID NO 50)]
50 to 75% | LLLDTVTMQV [peptide LLLDTVTMQV (SEQ ID NO 172)]
20 to 50% | RLQETEGMVAV [peptide RLQETEGMVAV (SEQ ID NO 171)]
50 to 75% | GLIRFPLMTI [peptide GLIRFPLMTI (SEQ ID NO 168)]
≥ 75% | RLIPDTLYSV [peptide RLIPDTLYSV (SEQ ID NO 3)]
50 to 75% | ALLQGAIESV [peptide ALLQGAIESV (SEQ ID NO 177)]
50 to 75% | GLHNVVYGI [peptide GLHNVVYGI (SEQ ID NO 187)]
50 to 75% | TLQEVVTGV [peptide TLQEVVTGV (SEQ ID NO 183)]

peptide exchange yield | Binder
≥ 75% | RLLDFPEAMVL [peptide RLLDFPEAMVL (SEQ ID NO 165)]
20 to 50% | SLAPTPVSA [peptide SLAPTPVSA (SEQ ID NO 38)]
20 to 50% | RTLDKVLEV [peptide RTLDKVLEV (SEQ ID NO 176)]
50 to 75% | KMSEKILLL [peptide KMSEKILLL (SEQ ID NO 186)]
50 to 75% | ALAGGITMV [peptide ALAGGITMV (SEQ ID NO 170)]
≥ 75% | SILDDSFKL [peptide SILDDSFKL (SEQ ID NO 42)]
50 to 75% | NLFDLGGQYLRV [peptide NLFDLGGQYLRV (SEQ ID NO 181)]
50 to 75% | TLLGGKEAQALGV [peptide TLLGGKEAQALGV (SEQ ID NO 175)]
50 to 75% | RLL[pS]PLSSA (Printed with J for phosphoserine; the plain residue at position 4 is serine) [peptide RLLJPLSSA (SEQ ID NO 179)]
20 to 50% | YLFREPATI [peptide YLFREPATI (SEQ ID NO 178)]
20 to 50% | ILDDSFKLL [peptide ILDDSFKLL (SEQ ID NO 41)]
50 to 75% | VLVDQSWVL [peptide VLVDQSWVL (SEQ ID NO 16)]
20 to 50% | KLNTETFGV [peptide KLNTETFGV (SEQ ID NO 32)]
≥ 75% | SLNKWIFTV [peptide SLNKWIFTV (SEQ ID NO 182)]
50 to 75% | AMAEMVLQV [peptide AMAEMVLQV (SEQ ID NO 190)]
50 to 75% | GLLEARGILGL [peptide GLLEARGILGL (SEQ ID NO 166)]
50 to 75% | ALWEKNTHL [peptide ALWEKNTHL (SEQ ID NO 33)]
50 to 75% | FLDANGHFV [peptide FLDANGHFV (SEQ ID NO 23)]
50 to 75% | AISEVIGKITA [peptide AISEVIGKITA (SEQ ID NO 189)]
≥ 75% | QLFSEIHNL [peptide QLFSEIHNL (SEQ ID NO 191)]
20 to 50% | ALDSSNSMQTI [peptide ALDSSNSMQTI (SEQ ID NO 52)]
50 to 75% | ALAAARVEL [peptide ALAAARVEL (SEQ ID NO 17)]
